The target of series [1] is T1, RBM39 RRM2 (UniProt Q14498 247-332).
T1 sequence: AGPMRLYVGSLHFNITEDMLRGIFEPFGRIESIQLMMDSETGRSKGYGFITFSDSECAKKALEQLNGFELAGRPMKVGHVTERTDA
The series can be described thus: NMR CSP.

Series [2] deals with T1, RBM39 RRM2. Kind of series: NMR CSP. The source holds these as a separate data set.
Another series addresses T2, GB1-RBM39-RRM12 (UniProt Q14498 143-332).
T2 sequence: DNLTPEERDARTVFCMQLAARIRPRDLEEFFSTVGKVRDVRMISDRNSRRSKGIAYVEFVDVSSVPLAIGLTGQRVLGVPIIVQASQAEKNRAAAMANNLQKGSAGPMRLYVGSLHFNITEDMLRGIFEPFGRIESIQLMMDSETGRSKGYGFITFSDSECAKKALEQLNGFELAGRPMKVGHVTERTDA
Kind of series: NMR CSP.

Another series has as its target T3, RBM39 RRM12 (UniProt Q14498 143-332).
T3 sequence: T2 sequence
Kind of series: NMR CSP.

A further series deals with T4, RBM39 RRM1 (UniProt Q14498 142-237).
T4 sequence: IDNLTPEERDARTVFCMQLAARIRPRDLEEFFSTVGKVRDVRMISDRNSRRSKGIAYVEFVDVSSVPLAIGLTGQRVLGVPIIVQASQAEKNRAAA
The series can be described thus: NMR solution structure.

Series [3] addresses T1, RBM39 RRM2. Kind of series: ITC. For orientation: ITC needs no label: the signal is the heat of the interaction.
The next series concerns the target T5, RBM39 RRM2 F259A (UniProt Q14498 247-332, F259A).
T5 sequence: T1 sequence with F13A
Kind of series: ITC.

Numbering of substitutions follows the chain as printed. Like-named read-outs stand apart in the source and are kept apart here.

The term Kd denotes the equilibrium constant for the complex coming apart. Read a low Kd as higher affinity.

B1: mutBS1 (CCUCCCA) (ssRNA)
RNA: CCUCCCA
As to B1, the binding result with RBM39 RRM2 [1] was “no binding”.

B2: BS1 (CUCUUUG) (ssRNA)
RNA: CUCUUUG
B2: the binding result in the series with RBM39 RRM2 [2] is on record as “binds”.

B3: RBMY stem-loop aptamer (structured_RNA)
RNA: GGACUGUCCACAAGACAGUCG
Regarding B3, the binding result with GB1-RBM39-RRM12 is recorded as “binds”.

B4: U1 snRNA SL3 (structured_RNA)
RNA: GGGAUUUCCCCAAAUGUGGGAAACUCCC
For the molecule B4, the binding result with RBM39 RRM12 and in the series with RBM39 RRM1 was “binds” throughout.

B5: AGCUUUG ssRNA (ssRNA)
RNA: AGCUUUG
In the series with RBM39 RRM2 [3], B5 gave a Kd of 9 ± 2 µM. The binding signal with RBM39 RRM2 F259A is 4 fold lower affinity than WT.

B6: U1 snRNA SL4 (structured_RNA)
RNA: GGGGACUGCGUUCGCGCUUUCCCC
In the case of B6, in the series with GB1-RBM39-RRM12, the binding result was “binds”.

B7: BS2 (ACCUUUG) (ssRNA)
RNA: ACCUUUG
On to B7, for which, in the series with RBM39 RRM2 [2], the binding result is recorded as “binds”.

The values are drawn from paper doi:10.1101/2022.08.30.505862.
